From patent US20150166668A1 (PROMIS NEUROSCIENCES, published 2015)

B1: DSE3 ab120 (antibody, V domains shown)
VH: QSVEESGGHLVTPGTPLTLTCTVSGIDLSTYAMGWVRQAPGKGLEWIGVITKSGNTYYASWAKGRFAISKTSTTVDLKITSPTTEDTATYFCGRYGIGVSYYDIWGPGTLVTVSS
VL: AQVLTQTPSPVSAAVGGTVTINCQSSQSLYNKNWLSWYQKKPGQPPKLLIYKASTLESGVSSRFKGSGSGTQFTLTISGVQCDDAATYYCQGEFSCSSADCTAFGGGTEVVVKG

Legend:
[1] = biological target: PrP on the surface of normal cells (human) (UniProt P04156); assay: flow cytometry on HOEpiC Donor 3 normal ovarian epithelium
[2] = biological target: PrP on the surface of normal cells (human) (UniProt P04156)
[3] = biological target: PrP on the surface of normal cells (human) (UniProt P04156); assay: flow cytometry on HOEpiC Donor 1 normal ovarian epithelium
[4] = biological target: PrP on the surface of normal cells (human) (UniProt P04156); assay: flow cytometry on HOEpiC Donor 2 normal ovarian epithelium
BSA-DSE3 peptide = biological target: T1, BSA-DSE3 peptide (human); assay: ELISA, plate coated with BSA-peptide
T1 construct: also called immunogen peptides; specific peptide

Molecule | Ave S/N [1] | EC50 [2] [nM] | Ave S/N [3] | Ave S/N [4] | EC50 (BSA-DSE3 peptide) [nM]
Anti-PrP 6H4 antibody | 15.1 | 17 | 8.31 | 14.2 | 
B1 |  |  |  |  | 0.0655
